Legend:
[1] = target: T1, HIV-1 Rev protein (HIV-1) (UniProt P04618); test: filter; conditions: background affinity of starting pool
T1 sequence: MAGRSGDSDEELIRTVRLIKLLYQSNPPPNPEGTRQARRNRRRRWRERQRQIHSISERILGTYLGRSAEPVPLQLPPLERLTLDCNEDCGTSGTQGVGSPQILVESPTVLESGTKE

[2] = target: HIV-1 reverse transcriptase (HIV-RT) (HIV-1) (UniProt P04585+P04585); test: filter

Sequence	Kd [1]	binding signal (fold higher affinity than ligand B) [2]
CCCGGAUCCUCUUUACCUCUGUGUGAGAUACAGAGUCCACAAACGUGUUCUCAAUGCACCCGGUCGGAAGGCCAUCAAUAGUCCC	100 nM	–
GGUCCGAAGUGCAACGGGAAAAUGCACUNNNNGUGARNNNNUGNUCCNNNN [extended HIV-RT ligands, Extension Motif I consensus]	–	> 10
GGUCCGAAGUGCAACGGGAAAAUGCACUNNNNNNAGNNNNNNUGNUGNNNNNNN [extended HIV-RT ligands, Extension Motif II consensus]	–	> 10
